T1: CO/NF-YC9 mixture (mCherry-CO with NF-YC9-GFP), immobilised together (Arabidopsis thaliana, UniProt Q39057 1-373; Q8L4B2 1-231)
T1 chain 1: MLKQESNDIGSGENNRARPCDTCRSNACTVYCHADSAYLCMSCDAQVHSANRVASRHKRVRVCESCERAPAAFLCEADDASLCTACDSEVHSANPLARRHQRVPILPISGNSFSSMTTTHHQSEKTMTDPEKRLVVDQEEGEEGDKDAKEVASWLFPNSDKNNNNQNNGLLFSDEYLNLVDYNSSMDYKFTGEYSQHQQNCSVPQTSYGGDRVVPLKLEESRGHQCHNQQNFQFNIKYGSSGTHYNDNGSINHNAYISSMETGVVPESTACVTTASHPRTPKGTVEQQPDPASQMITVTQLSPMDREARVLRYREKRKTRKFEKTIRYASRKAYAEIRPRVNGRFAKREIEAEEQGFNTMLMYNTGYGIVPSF
T1 chain 2: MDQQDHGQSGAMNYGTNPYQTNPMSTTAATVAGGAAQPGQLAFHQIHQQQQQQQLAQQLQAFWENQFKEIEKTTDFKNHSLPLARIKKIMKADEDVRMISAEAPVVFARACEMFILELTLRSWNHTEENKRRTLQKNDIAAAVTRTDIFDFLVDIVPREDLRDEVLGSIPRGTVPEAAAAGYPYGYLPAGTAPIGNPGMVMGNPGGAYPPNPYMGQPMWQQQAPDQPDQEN

T2: NF-YC9-GFP, recombinant (Arabidopsis thaliana, UniProt Q8L4B2 1-231)
T2 chain: T1 chain 2

T3: mCherry-CO (CONSTANS), recombinant (Arabidopsis thaliana, UniProt Q39057 1-373)
T3 construct: CONSTANS (CO), Arabidopsis thaliana; No tag cleavage step is described; also called SUMO-mCherry-CO; source: E. coli Rosetta pLysS, purified (HisTrap; size exclusion when necessary); not shown: mCherry, N-terminal, kept
T3 sequence (looked up): T1 chain 1

B1: NF-YB2, recombinant (natural protein, Arabidopsis thaliana, UniProt Q9FGJ3 1-190, looked up)
chain: MGDSDRDSGGGQNGNNQNGQSSLSPREQDRFLPIANVSRIMKKALPANAKISKDAKETMQECVSEFISFVTGEASDKCQKEKRKTINGDDLLWAMTTLGFEDYVEPLKVYLQRFREIEGERTGLGRPQTGGEVGEHQRDAVGDGGGFYGGGGGMQYHQHHQFLHQQNHMYGATGGGSDSGGGAASGRTRT
notes: Nuclear Factor-Y subunit B2 (NF-YB2), Arabidopsis thaliana; Unlabelled form, as used in SPR; also called His-NF-YB2; source: E. coli Rosetta pLysS, purified (HisTrap; size exclusion when necessary)
B2: NF-YB2, recombinant, labelled with Alexa Fluor 647 (natural protein, Arabidopsis thaliana, UniProt Q9FGJ3 1-190, looked up)
chain: B1 chain
modifications: Alexa Fluor 647 label (site not stated)
notes: Nuclear Factor-Y subunit B2 (NF-YB2), Arabidopsis thaliana; Same construct as m3, with the dye, as used for TIRF single-particle imaging; also called NF-YB2 (labeled by Alexa fluor 647); NF-YB2 with Alex647; source: E. coli Rosetta pLysS, purified (HisTrap; size exclusion when necessary)
B3: NF-YC9-GFP, recombinant (natural protein, Arabidopsis thaliana, UniProt Q8L4B2 1-231, looked up)
chain: T1 chain 2
notes: Nuclear Factor-Y subunit C9 (NF-YC9), Arabidopsis thaliana; No tag cleavage step is described; also called MBP-NF-YC9-GFP; source: E. coli Rosetta pLysS, purified (HisTrap; size exclusion when necessary); not shown: GFP, C-terminal, kept
B4: mCherry-CO (CONSTANS), recombinant (natural protein)
chain: T1 chain 1

Tests used:
[1] = molecular target: T1, CO/NF-YC9 mixture (mCherry-CO with …); assay: SPR; bivalent model
[2] = molecular target: B4; assay: SPR; bivalent model
NF-YC9-GFP, recombinant [3] = molecular target: T2, NF-YC9-GFP, recombinant; assay: SPR; bivalent model
SPR; bivalent model = molecular target: the molecule itself; assay: SPR; bivalent model
[4] = molecular target: T1, CO/NF-YC9 mixture (mCherry-CO with …); assay: SPR; bivalent model, kd1
[5] = molecular target: B4; assay: SPR; bivalent model, kd1
NF-YC9-GFP, recombinant [6] = molecular target: T2, NF-YC9-GFP, recombinant; assay: SPR; bivalent model, kd1
SPR; bivalent model, kd1 = molecular target: the molecule itself; assay: SPR; bivalent model, kd1
[7] = molecular target: T3, mCherry-CO (CONSTANS), recombinant; assay: SPR; Biacore T200, 25 °C; CO, NF-YC9 or a CO/NF-YC9 mixture (4:1) amine-coupled to a CM5 chip (1000-2000 RU); analytes NF-YB2, CO, NF-YC9 in twofold dilutions; HBST (10 mM HEPES, 150 mM NaCl, 3 mM EDTA, 0.05% Tween 20, pH 7.4); bivalent analyte model; conditions: both partners purified
NF-YC9-GFP, recombinant [8] = molecular target: B3; assay: as above; conditions: both partners purified
[9] = molecular target: T3, mCherry-CO (CONSTANS), recombinant; assay: single-particle colocalisation by TIRF microscopy; 10 nM of each of two recombinant proteins mixed in 20 mM HEPES, 150 mM NaCl, pH 7.4 for 5 min, put on cover glass; conditions: both partners purified
NF-YC9-GFP, recombinant [10] = molecular target: B3; assay: as above; conditions: both partners purified
[11] = molecular target: the molecule itself; assay: SPR; Biacore T200, 25 °C; CO, NF-YC9 or a CO/NF-YC9 mixture (4:1) amine-coupled to a CM5 chip (1000-2000 RU); analytes NF-YB2, CO, NF-YC9 in twofold dilutions; HBST (10 mM HEPES, 150 mM NaCl, 3 mM EDTA, 0.05% Tween 20, pH 7.4); bivalent analyte model

Kd [1] | Kd [2] | Kd (NF-YC9-GFP, recombinant [3]) | koff [4] | koff [5] | koff (NF-YC9-GFP, recombinant [6]) | binding result [7] | binding result (NF-YC9-GFP, recombinant [8]) | binding result [9] | binding result (NF-YC9-GFP, recombinant [10]) | Binder | Kd (SPR; bivalent model) | koff (SPR; bivalent model, kd1) | binding result [11]
40.6 nM | 100 nM | 41.6 nM | 0.00139 s⁻¹ | 0.00202 s⁻¹ | 0.00173 s⁻¹ | binds | binds | – | – | B1 | 23.7 nM | 0.00137 s⁻¹ | –
– | – | – | – | – | – | – | – | binds | binds | B2 | – | – | –
– | – | – | – | – | – | – | – | binds | – | B3 | 27.8 nM | 0.0017 s⁻¹ | binds
– | – | 53.6 nM | – | – | 0.00138 s⁻¹ | – | – | – | – | B4 | 53.8 nM | 0.0014 s⁻¹ | –

Source: PMC11696179, “Molecular condensation of the CO/NF-YB/NF-YC/FT complex gates floral transition in Arabidopsis” (The EMBO Journal, 2024)
